Assay results as given in publication PMC9507364, “Tuning the Size of Large Dense‐Core Vesicles and Quantal Neurotransmitter Release via Secretogranin II Liquid–Liquid Phase Separation” (Advanced Science, 2022).

B1: secretogranin II (SgII), His-mCherry tag removed (natural protein, mouse, UniProt Q03517 31-617, looked up)
chain: QRNQLLQKEPDLRLENVQKFPSPEMIRALEYIEKLRQQAHREESSPDYNPYQGVSVPLQLKENGEESHLAESSRDALSEDEWMRIILEALRQAENEPPSAPKENKPYALNLEKNFPVDTPDDYETQQWPERKLKHMRFPLMYEENSRENPFKRTNEIVEEQYTPQSLATLESVFQELGKLTGPSNQKRERVDEEQKLYTDDEDDVYKTNNIAYEDVVGGEDWSPIEEKIETQTQEEVRDSKENTEKNEQINEEMKRSGQLGLPDEENRRESKDQLSEDASKVITYLRRLVNAVGSGRSQSGPNGDRAARLLQKPLDSQSIYQLIEISRNLQIPPEDLIEMLKAGEKPNGLVEPEQDLELAVDLDDIPEADLDRPDMFQSKMLSKGGYPKAPGRGMVEALPDGLSVEDILNVLGMENVVNQKSPYFPNQYSQDKALMRLPYGPGKSRANQIPKVAWIPDVESRQAPYENLNDQELGEYLARMLVKYPELLNTNQLKRVPSPVSSEDDLQEEEQLEQAIKEHLGPGSSQEMERLAKVSKRIPVGSLKNEDTPNRQYLDEDMLLKVLEYLNQEQAEQGREHLAKRAMENM
notes: signal peptide in the construct; residues 1-617 (total of 617 amino acids; 1-30 is the signal peptide); Non-tagged proteins were made by cutting off His-mCherry with PreScission protease; The SPR methods say only 'Purified SgII', without the state of the tag; also called CgC; SgII_(1–617); source: HEK293S cells, BacMam baculovirus; purified (Ni-NTA, PreScission protease, Superose 6 Increase); not …

Legend:
[1] = target: B1; assay: SPR; Biacore T200, 25 °C; purified SgII immobilised on a CM5 chip by amine coupling; SgIII injected as analyte, 2 to 1000 nM in twofold dilutions; 25 mM Tris pH 7.5, 150 mM NaCl, 0.05% P20; dissociation constant calculated in affinity mode; conditions: both partners purified
[2] = target: the molecule itself; assay: SEC; Superose 6 Increase 10/300 GL; 25 mM Tris pH 7.5, 500 mM NaCl; self-association

| Binder | Kd [1] [nM] | binding result [2] |
| --- | --- | --- |
| Secretogranin III (SgIII) (natural protein, source: HEK293S cells, BacMam baculovirus; purified) not shown | 21.4 | – |
| B1 | – | binds |
| mCherry-tagged SgII (SgII-mCherry) (natural protein, mouse, UniProt Q03517 31-617, looked up, signal peptide in the construct; residues 1-617 (total of 617 amino acids; 1-30 is the signal peptide); also called SgII_(1–617) tagged with mCherry; source: HEK293S cells, BacMam baculovirus; purified (Ni-NTA, Superose 6 Increase); not shown: mCherry, C-terminal, kept) QRNQLLQKEPDLRLENVQKFPSPEMIRALEYIEKLRQQAHREESSPDYNPYQGVSVPLQLKENGEESHLAESSRDALSEDEWMRIILEALRQAENEPPSAPKENKPYALNLEKNFPVDTPDDYETQQWPERKLKHMRFPLMYEENSRENPFKRTNEIVEEQYTPQSLATLESVFQELGKLTGPSNQKRERVDEEQKLYTDDEDDVYKTNNIAYEDVVGGEDWSPIEEKIETQTQEEVRDSKENTEKNEQINEEMKRSGQLGLPDEENRRESKDQLSEDASKVITYLRRLVNAVGSGRSQSGPNGDRAARLLQKPLDSQSIYQLIEISRNLQIPPEDLIEMLKAGEKPNGLVEPEQDLELAVDLDDIPEADLDRPDMFQSKMLSKGGYPKAPGRGMVEALPDGLSVEDILNVLGMENVVNQKSPYFPNQYSQDKALMRLPYGPGKSRANQIPKVAWIPDVESRQAPYENLNDQELGEYLARMLVKYPELLNTNQLKRVPSPVSSEDDLQEEEQLEQAIKEHLGPGSSQEMERLAKVSKRIPVGSLKNEDTPNRQYLDEDMLLKVLEYLNQEQAEQGREHLAKRAMENM | – | binds |
